Measurements as given in PMC9482650, “Quantitative fragmentomics allow affinity mapping of interactomes” (Nature Communications, 2022).

T1: HTRA3, P83110
T1 sequence (P83110 354-453, limits assumed, looked up): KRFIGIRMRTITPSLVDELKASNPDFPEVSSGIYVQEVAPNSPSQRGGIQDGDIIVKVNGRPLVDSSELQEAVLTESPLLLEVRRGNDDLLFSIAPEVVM

T2: GRIP1_2, Q9Y3R0
T2 sequence (Q9Y3R0 145-248, limits assumed, looked up): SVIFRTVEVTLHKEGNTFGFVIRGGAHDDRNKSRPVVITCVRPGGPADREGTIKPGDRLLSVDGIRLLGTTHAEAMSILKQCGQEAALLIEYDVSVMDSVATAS

T3: PTPN13_1, Q12923
T3 sequence (Q12923 1088-1188, limits assumed, looked up): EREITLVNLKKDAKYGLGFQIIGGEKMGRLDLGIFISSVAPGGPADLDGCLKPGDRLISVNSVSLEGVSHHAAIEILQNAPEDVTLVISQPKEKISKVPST

T4: SYNJ2BP, P57105
T4 sequence (P57105 8-110, limits assumed, looked up): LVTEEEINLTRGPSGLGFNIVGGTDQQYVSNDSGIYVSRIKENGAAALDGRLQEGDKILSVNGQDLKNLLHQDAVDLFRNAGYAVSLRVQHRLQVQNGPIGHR

T5: LIN7B, Q9HAP6
T5 sequence (Q9HAP6 88-185, limits assumed, looked up): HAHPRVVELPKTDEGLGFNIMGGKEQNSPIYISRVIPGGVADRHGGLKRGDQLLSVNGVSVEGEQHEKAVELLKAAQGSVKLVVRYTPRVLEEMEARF

T6: PARD3B_1, Q8TEW8
T6 sequence (Q8TEW8 196-299, limits assumed, looked up): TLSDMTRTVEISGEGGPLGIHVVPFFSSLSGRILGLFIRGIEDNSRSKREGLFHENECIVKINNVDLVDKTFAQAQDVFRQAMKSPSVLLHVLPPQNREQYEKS

T7: RHPN1, Q8TCX5
T7 sequence (Q8TCX5 508-602, limits assumed, looked up): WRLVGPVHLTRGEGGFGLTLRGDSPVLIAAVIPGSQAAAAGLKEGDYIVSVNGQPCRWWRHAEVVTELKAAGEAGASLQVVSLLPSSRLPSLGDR

T8: MPDZ_10, O75970
T8 sequence (O75970 1624-1722, limits assumed, looked up): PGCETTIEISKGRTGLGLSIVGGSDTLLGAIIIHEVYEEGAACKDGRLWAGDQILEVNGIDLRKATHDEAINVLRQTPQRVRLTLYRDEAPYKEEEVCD

T9: DFNB31_1, Q9P202
T9 sequence (Q9P202 135-233, limits assumed, looked up): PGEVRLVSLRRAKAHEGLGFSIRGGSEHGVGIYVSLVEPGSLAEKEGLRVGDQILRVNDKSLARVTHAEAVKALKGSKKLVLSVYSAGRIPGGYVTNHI

T10: DLG3_1, Q92796
T10 sequence (Q92796 125-227, limits assumed, looked up): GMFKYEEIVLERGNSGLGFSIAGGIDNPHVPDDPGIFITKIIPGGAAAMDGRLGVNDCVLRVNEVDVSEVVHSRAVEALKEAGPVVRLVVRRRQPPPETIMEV

T11: GRIP1_4, Q9Y3R0
T11 sequence (Q9Y3R0 467-571, limits assumed, looked up): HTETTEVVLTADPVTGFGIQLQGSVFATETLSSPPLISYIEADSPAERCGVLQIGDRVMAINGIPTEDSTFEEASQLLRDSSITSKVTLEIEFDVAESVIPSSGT

T12: DLG3_2, Q92796
T12 sequence (Q92796 221-321, limits assumed, looked up): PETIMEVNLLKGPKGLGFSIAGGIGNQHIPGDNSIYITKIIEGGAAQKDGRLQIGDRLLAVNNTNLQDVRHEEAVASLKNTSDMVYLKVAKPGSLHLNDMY

B1: TRMT13, Q9NUP7 (peptide)
chain: NHSSSPETTA
B2: RNF146, Q9NTX7 (peptide)
chain: PDGQCTVTEV
B3: MYOZ2, Q9NPC6 (peptide)
chain: DTTVPESEDL

What follows are binders tested against Inadl_10, Q8NI35 (assay: holdup assay). Details: plain residues with an end cap or a label only (N-terminal biotin on a linker: ado-ado).
Sequence of Inadl_10, Q8NI35 (Q8NI35 1673-1763): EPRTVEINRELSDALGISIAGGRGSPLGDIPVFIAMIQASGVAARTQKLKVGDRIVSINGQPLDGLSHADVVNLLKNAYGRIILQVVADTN
Set-up: key: below the threshold = too weak to quantify, mostly under pKd 3.1 to 4
In the case of B1, the pKd is reported as “below the threshold”. Work on B2 yielded a pKd of 3.58. B3 was tested, and the pKd was “below the threshold”.

These binders were tested against TJP1_3, Q07157 (assay: holdup assay). Details: plain residues with an end cap or a label only (N-terminal biotin on a linker: ado-ado).
Sequence of TJP1_3, Q07157 (Q07157 416-512): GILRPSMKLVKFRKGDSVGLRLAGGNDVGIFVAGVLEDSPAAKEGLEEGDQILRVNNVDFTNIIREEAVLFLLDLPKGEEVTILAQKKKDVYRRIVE
Set-up: key: below the threshold = too weak to quantify, mostly under pKd 3.1 to 4
With B1 the pKd was “below the threshold”. In the case of B2, the pKd is reported as “below the threshold”. B3 was tested, and the pKd was “below the threshold”.

What follows are binders tested against Inadl_9, Q8NI35 (assay: holdup assay). Details: plain residues with an end cap or a label only (N-terminal biotin on a linker: ado-ado).
Sequence of Inadl_9, Q8NI35 (Q8NI35 1530-1615): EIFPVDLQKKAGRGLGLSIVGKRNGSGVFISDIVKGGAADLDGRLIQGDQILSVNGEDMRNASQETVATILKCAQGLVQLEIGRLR
Set-up: key: below the threshold = too weak to quantify, mostly under pKd 3.1 to 4
B1 was tested, and the pKd was “below the threshold”. Work on B2 yielded a pKd of 3.72. With B3 the pKd was “below the threshold”.

Each binder was assayed against T1, HTRA3, P83110 (assay: holdup assay). Details: plain residues with an end cap or a label only (N-terminal biotin on a linker: ado-ado).
Set-up: key: below the threshold = too weak to quantify, mostly under pKd 3.1 to 4
With B1 the pKd was “below the threshold”. In the case of B2, the pKd is reported as “below the threshold”. With B3 the pKd was “below the threshold”.

These binders were tested against T2, GRIP1_2, Q9Y3R0 (assay: holdup assay). Details: plain residues with an end cap or a label only (N-terminal biotin on a linker: ado-ado).
Set-up: key: below the threshold = too weak to quantify, mostly under pKd 3.1 to 4
With B1 the pKd was “below the threshold”. In the case of B2, the pKd is reported as “below the threshold”. With B3 the pKd was “below the threshold”.

The binders below were run against T3, PTPN13_1, Q12923 (assay: holdup assay). Details: plain residues with an end cap or a label only (N-terminal biotin on a linker: ado-ado).
Set-up: key: below the threshold = too weak to quantify, mostly under pKd 3.1 to 4
In the case of B1, the pKd is reported as “below the threshold”. With B2 the pKd was “below the threshold”. With B3 the pKd was “below the threshold”.

The binders below were run against T4, SYNJ2BP, P57105 (assay: holdup assay). Details: plain residues with an end cap or a label only (N-terminal biotin on a linker: ado-ado).
Set-up: key: below the threshold = too weak to quantify, mostly under pKd 3.1 to 4
In the case of B1, the pKd is reported as “below the threshold”. B2 was tested, and the pKd was 4.75. For B3, the pKd was “below the threshold”.

These binders were tested against T5, LIN7B, Q9HAP6 (assay: holdup assay). Details: plain residues with an end cap or a label only (N-terminal biotin on a linker: ado-ado).
Set-up: key: below the threshold = too weak to quantify, mostly under pKd 3.1 to 4
B1 was tested, and the pKd was “below the threshold”. B2 was tested, and the pKd was “below the threshold”. B3 was tested, and the pKd was “below the threshold”.

These binders were tested against DLG1_3, Q12959 (assay: holdup assay). Details: plain residues with an end cap or a label only (N-terminal biotin on a linker: ado-ado).
Sequence of DLG1_3, Q12959 (Q12959 457-571): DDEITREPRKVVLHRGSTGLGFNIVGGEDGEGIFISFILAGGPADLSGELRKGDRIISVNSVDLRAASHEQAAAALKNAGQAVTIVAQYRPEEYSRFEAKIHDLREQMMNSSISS
Set-up: key: below the threshold = too weak to quantify, mostly under pKd 3.1 to 4
B1 was tested, and the pKd was “below the threshold”. B2 was tested, and the pKd was “below the threshold”. B3 was tested, and the pKd was “below the threshold”.

What follows are binders tested against NOS1, P29475 (assay: holdup assay). Details: plain residues with an end cap or a label only (N-terminal biotin on a linker: ado-ado).
Sequence of NOS1, P29475 (P29475 9-101): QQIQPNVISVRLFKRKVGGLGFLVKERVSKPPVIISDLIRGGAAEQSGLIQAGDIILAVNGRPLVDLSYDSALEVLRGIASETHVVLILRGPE
Set-up: key: below the threshold = too weak to quantify, mostly under pKd 3.1 to 4
With B1 the pKd was “below the threshold”. Binder B2 has a pKd of 3.74. In the case of B3, the pKd is reported as “below the threshold”.

Each binder was assayed against T6, PARD3B_1, Q8TEW8 (assay: holdup assay). Details: plain residues with an end cap or a label only (N-terminal biotin on a linker: ado-ado).
Set-up: key: below the threshold = too weak to quantify, mostly under pKd 3.1 to 4
In the case of B1, the pKd is reported as “below the threshold”. For B2, the pKd was “below the threshold”. With B3 the pKd was “below the threshold”.

Each binder was assayed against LAP2, Q96RT1 (assay: holdup assay). Details: plain residues with an end cap or a label only (N-terminal biotin on a linker: ado-ado).
Sequence of LAP2, Q96RT1 (Q96RT1 other isoform, or with tags, fused parts or gaps): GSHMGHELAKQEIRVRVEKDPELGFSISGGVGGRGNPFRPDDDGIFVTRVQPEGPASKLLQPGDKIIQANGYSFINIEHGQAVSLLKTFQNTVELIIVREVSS
Set-up: key: below the threshold = too weak to quantify, mostly under pKd 3.1 to 4
With B1 the pKd was “below the threshold”. B2 showed a pKd of 4.22. B3 was tested, and the pKd was “below the threshold”.

Each binder was assayed against NHERF4_4, Q86UT5 (assay: holdup assay). Details: plain residues with an end cap or a label only (N-terminal biotin on a linker: ado-ado).
Sequence of NHERF4_4, Q86UT5 (Q86UT5 464-550): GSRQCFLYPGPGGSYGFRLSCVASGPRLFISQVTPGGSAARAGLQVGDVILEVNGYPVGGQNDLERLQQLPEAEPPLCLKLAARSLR
Set-up: key: below the threshold = too weak to quantify, mostly under pKd 3.1 to 4
With B1 the pKd was “below the threshold”. B2 gave a pKd of 4.02. In the case of B3, the pKd is reported as “below the threshold”.

These binders were tested against Inadl_5, Q8NI35 (assay: holdup assay). Details: plain residues with an end cap or a label only (N-terminal biotin on a linker: ado-ado).
Sequence of Inadl_5, Q8NI35 (Q8NI35 673-780): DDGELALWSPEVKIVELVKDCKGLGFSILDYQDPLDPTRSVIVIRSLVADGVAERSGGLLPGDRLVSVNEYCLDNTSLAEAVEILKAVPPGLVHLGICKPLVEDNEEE
Set-up: key: below the threshold = too weak to quantify, mostly under pKd 3.1 to 4
In the case of B1, the pKd is reported as “below the threshold”. For B2, the pKd was “below the threshold”. B3 was tested, and the pKd was “below the threshold”.

These binders were tested against T7, RHPN1, Q8TCX5 (assay: holdup assay). Details: plain residues with an end cap or a label only (N-terminal biotin on a linker: ado-ado).
Set-up: key: below the threshold = too weak to quantify, mostly under pKd 3.1 to 4
For B1, the pKd was “below the threshold”. B2 showed a pKd of 4.68. For B3, the pKd was “below the threshold”.

What follows are binders tested against T8, MPDZ_10, O75970 (assay: holdup assay). Details: plain residues with an end cap or a label only (N-terminal biotin on a linker: ado-ado).
Set-up: key: below the threshold = too weak to quantify, mostly under pKd 3.1 to 4
For B1, the pKd was “below the threshold”. In the case of B2, the pKd is reported as “below the threshold”. In the case of B3, the pKd is reported as “below the threshold”.

What follows are binders tested against T9, DFNB31_1, Q9P202 (assay: holdup assay). Details: plain residues with an end cap or a label only (N-terminal biotin on a linker: ado-ado).
Set-up: key: below the threshold = too weak to quantify, mostly under pKd 3.1 to 4
For B1, the pKd was “below the threshold”. Binder B2 has a pKd of 3.9. In the case of B3, the pKd is reported as “below the threshold”.

The binders below were run against TJP2_1, Q9UDY2 (assay: holdup assay). Details: plain residues with an end cap or a label only (N-terminal biotin on a linker: ado-ado).
Sequence of TJP2_1, Q9UDY2 (Q9UDY2 24-128): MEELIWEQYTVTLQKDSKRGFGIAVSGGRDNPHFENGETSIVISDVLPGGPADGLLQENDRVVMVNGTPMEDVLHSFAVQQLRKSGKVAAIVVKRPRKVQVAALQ
Set-up: key: below the threshold = too weak to quantify, mostly under pKd 3.1 to 4
In the case of B1, the pKd is reported as “below the threshold”. With B2 the pKd was “below the threshold”. For B3, the pKd was “below the threshold”.

These binders were tested against GORASP2, Q9H8Y8 (assay: holdup assay). Details: plain residues with an end cap or a label only (N-terminal biotin on a linker: ado-ado).
Set-up: key: below the threshold = too weak to quantify, mostly under pKd 3.1 to 4
In the case of B1, the pKd is reported as “below the threshold”. With B2 the pKd was 4.17. B3 was tested, and the pKd was “below the threshold”.

These binders were tested against IL16_1, Q14005 (assay: holdup assay). Details: plain residues with an end cap or a label only (N-terminal biotin on a linker: ado-ado).
Sequence of IL16_1, Q14005 (Q14005 210-306): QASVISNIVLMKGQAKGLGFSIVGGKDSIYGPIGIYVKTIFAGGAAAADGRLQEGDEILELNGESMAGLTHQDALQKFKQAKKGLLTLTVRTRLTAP
Set-up: key: below the threshold = too weak to quantify, mostly under pKd 3.1 to 4
With B1 the pKd was “below the threshold”. B2 gave a pKd of 4.17. For B3, the pKd was “below the threshold”.

Each binder was assayed against T10, DLG3_1, Q92796 (assay: holdup assay). Details: plain residues with an end cap or a label only (N-terminal biotin on a linker: ado-ado).
Set-up: key: below the threshold = too weak to quantify, mostly under pKd 3.1 to 4
In the case of B1, the pKd is reported as “below the threshold”. For B2, the pKd was 3.87. In the case of B3, the pKd is reported as “below the threshold”.

What follows are binders tested against T11, GRIP1_4, Q9Y3R0 (assay: holdup assay). Details: plain residues with an end cap or a label only (N-terminal biotin on a linker: ado-ado).
Set-up: key: below the threshold = too weak to quantify, mostly under pKd 3.1 to 4
In the case of B1, the pKd is reported as “below the threshold”. For B2, the pKd was “below the threshold”. B3 was tested, and the pKd was “below the threshold”.

These binders were tested against T12, DLG3_2, Q92796 (assay: holdup assay). Details: plain residues with an end cap or a label only (N-terminal biotin on a linker: ado-ado).
Set-up: key: below the threshold = too weak to quantify, mostly under pKd 3.1 to 4
B1 showed a pKd of 4.09. B2 was tested, and the pKd was 4.98. B3 was tested, and the pKd was “below the threshold”.

The binders below were run against HTRA1, Q92743 (assay: holdup assay). Details: plain residues with an end cap or a label only (N-terminal biotin on a linker: ado-ado).
Sequence of HTRA1, Q92743 (Q92743 360-477): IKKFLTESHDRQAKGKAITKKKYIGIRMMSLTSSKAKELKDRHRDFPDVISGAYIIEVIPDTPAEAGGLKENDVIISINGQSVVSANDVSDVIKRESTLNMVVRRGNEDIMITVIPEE
Set-up: key: below the threshold = too weak to quantify, mostly under pKd 3.1 to 4
B1 was tested, and the pKd was “below the threshold”. B2 was tested, and the pKd was 5.05. In the case of B3, the pKd is reported as “below the threshold”.

Each binder was assayed against DLG4_1, P78352 (assay: holdup assay). Details: plain residues with an end cap or a label only (N-terminal biotin on a linker: ado-ado).
Sequence of DLG4_1, P78352 (P78352 62-152): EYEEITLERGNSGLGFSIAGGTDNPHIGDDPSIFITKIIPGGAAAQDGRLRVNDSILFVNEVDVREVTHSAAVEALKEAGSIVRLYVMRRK
Set-up: key: below the threshold = too weak to quantify, mostly under pKd 3.1 to 4
In the case of B1, the pKd is reported as “below the threshold”. With B2 the pKd was 4.6. In the case of B3, the pKd is reported as “below the threshold”.
